This is an account of results in patent publication US7875275B2, “Use of Bridge-1 and activators and inhibitors thereof in the treatment of insulin deficiency and diabetes” (The General Hospital Corporation, priority 2004, dated 2011).

In assay [1] the target is T1, Gal4-Bridge-1 (UniProt P04386+Q9WTV5).
T1 construct: excision of full-length rat Bridge-1 cDNA from the previously reported Gal4-Bridge-1 (pM-Bridge-1) vector; expressed in transfected cells; host or cells: BHK cells (BHK-21 C-13), transient transfection
As to the kind of experiment: Gal4-Bridge-1 transcriptional activation of Gal4-CAT reporter in BHK cells. To be noted: 0-3 μg pCMV-p300 expression vector. It is filed as cell-based, rat. The protocol: FIG. 17 (a-d). The coactivator Bridge-1 interacts with multiple domains of p300. (a) Trichostatin A increases transcriptional activation by Bridge-1. BHK cells were transfected in duplicate with 1.5 μg Gal4-Bridge-1 or empty Gal4 expression vector, 3.25 μg pBluescript, and 250 ng of a Gal4-luciferase reporter and treated with vehicle (0), 2, or 4 ng/mL trichostatin A for 24 hours. Results shown are the mean+/−SEM relative luciferase activity of Gal4-Bridge-1 normalized to the empty Gal4 expression vector (n=3-5 transfections). (b) p300 increases the transcriptional activation by Bridge-1. […]
(§1) Cell culture and transfections. […] Transfections were conducted with Lipofectamine or Lipofectamine 2000 (Invitrogen Life Technologies) according to published methods (Thomas, M. K., et al., Molec. Cell. Biol. 19:8492-8504 (1999). Yeast transcriptional activation assays were conducted as previously reported (Thomas, M. K., et al., supra; Golemis, E. A., et al., Current Protocols in Molecular Biology, Ausubel, F. M., et al., eds., John Wiley and Sons, pp. 13.14.1-13.14.17 (1994)) with quantitative LexA-operator responsive beta-galactosidase reporter assays as outlined by the manufacturer (BD Biosciences Clontech, Palo Alto, Calif.).

The target in assay [2] is T2, Bridge-1 (Gal4 DBD-Bridge-1) (Rattus norvegicus, UniProt Q9WTV5).
T2 construct: excision of full-length rat Bridge-1 cDNA from the previously reported Gal4-Bridge-1 (pM-Bridge-1) vector; expressed in transfected cells; host or cells: BHK cells (BHK-21 C-13), transient transfection
As to the kind of experiment: Gal4-Bridge-1 transactivation assay in BHK cells (Gal4-luciferase reporter). It is filed as cell-based. As to the method: FIG. 17 (a-d). The coactivator Bridge-1 interacts with multiple domains of p300. (a) Trichostatin A increases transcriptional activation by Bridge-1. BHK cells were transfected in duplicate with 1.5 μg Gal4-Bridge-1 or empty Gal4 expression vector, 3.25 μg pBluescript, and 250 ng of a Gal4-luciferase reporter and treated with vehicle (0), 2, or 4 ng/mL trichostatin A for 24 hours. Results shown are the mean+/−SEM relative luciferase activity of Gal4-Bridge-1 normalized to the empty Gal4 expression vector (n=3-5 transfections). (b) p300 increases the transcriptional activation by Bridge-1. BHK cells were transfected in duplicate with 0-3 μg of the p300 expression vector pCMV-p300 and 0.5 μg Gal4-Bridge-1 or empty Gal4 expression vector and 1 μg of a Gal4-CAT reporter. pBluescript was used to normalize the total DNA content for all conditions. Data shown are the mean of two transfections. (c) Bridge-1 directly interacts with p300. GST-Bridge-1 or GST control proteins were incubated with in vitro translated, radiolabeled [^35S]-p300 in GST protein interaction assays. A representative autoradiogram is shown of an SDS polyacrylamide gel from a GST pull-down protein interaction assay with the migration position of [^35S]-p300 designated (arrow). (d) Bridge-1 interacts with multiple domains within p300. […]
Various compounds were assayed for their ability to activate or inhibit Bridge-1 transactivation function. In these experiments, the transactivation assay previously described (Thomas, M. K. et al., Mol. Cell. Biol. 19(12):8492-8504 (1999)) incorporated herein by reference) was used with the modification that the plasmid reporter was a Gal4 luciferase reporter with luciferase activity measured rather than the Gal4CAT reporter used in 1999. […]
as §1
A general note: Reporter assays use an easily measured gene product as a stand-in for the process of interest.

Assay [3] has as its target T3, PDX-1 Bait (Rattus norvegicus, UniProt P52947).
T3 construct: A LexA-rat PDX-1 bait fusion protein construct consisting of PDX-1 amino acids 160-283 cloned in the vector pEG202; expressed in transfected cells
As to the kind of experiment: Semiquantitative yeast two-hybrid interaction trap assay. It is filed as binding. Also on record: key: ++: growth on leucine dropout plates and intense blue colonies on X-gal plates; −: no growh on leucine dropout plates and white colonies on X-gal plates. The settings on record: LexA-rat PDX-1 amino acids 160-283 bait, LEU2 and lacZ reporters. The protocol:
Yeast interaction trap assays. Semiquantitative yeast two-hybrid interaction trap assays were conducted as previously reported (Golemis et al., 1994; Thomas et al., 1999). A LexA-rat PDX-1 bait fusion protein construct consisting of PDX-1 amino acids 160-283 cloned in the vector pEG202 and an acidic domain-rat Bridge-1 fusion protein construct cloned in the vector pJG4-5 were independently tested for activation of LexA operator-responsive LEU2 or β-galactosidase (lacZ) reporters in yeast. Interactions of E12 with rat Twist and rat inhibitor of differentiation-3 (Id3) proteins were used as positive controls and interactions of Bridge-1 with the human interleukin-1 receptor or D. melanogaster bicoid proteins were used as negative controls for the assays (Thomas et al., 1999). Fusion protein interactions were measured independently by growth on leucine dropout plates as a measure of LEU reporter activation or by blue color intensity with growth for 72 hours at 30° C. on X-Gal (5-bromo-4-chloro-3-indoyl-β-D-galactopyranoside) plates as a measure of lacZ reporter activation.
We assessed whether Bridge-1 interacts with PDX-1 in a yeast two-hybrid interaction trap system. […] Thus the rat Bridge-1 protein interacts with a carboxy-terminal PDX-1 protein fragment in yeast cells.

Setting [4] is: Gal4-luciferase reporter, 24 hours incubation, vs vehicle.

T3 sequence (P52947 160-283): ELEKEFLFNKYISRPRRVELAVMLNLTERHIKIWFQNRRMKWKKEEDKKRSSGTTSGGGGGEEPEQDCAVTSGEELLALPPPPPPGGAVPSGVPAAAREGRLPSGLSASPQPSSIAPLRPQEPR
T2 sequence (Q9WTV5 with tags, fused parts or gaps): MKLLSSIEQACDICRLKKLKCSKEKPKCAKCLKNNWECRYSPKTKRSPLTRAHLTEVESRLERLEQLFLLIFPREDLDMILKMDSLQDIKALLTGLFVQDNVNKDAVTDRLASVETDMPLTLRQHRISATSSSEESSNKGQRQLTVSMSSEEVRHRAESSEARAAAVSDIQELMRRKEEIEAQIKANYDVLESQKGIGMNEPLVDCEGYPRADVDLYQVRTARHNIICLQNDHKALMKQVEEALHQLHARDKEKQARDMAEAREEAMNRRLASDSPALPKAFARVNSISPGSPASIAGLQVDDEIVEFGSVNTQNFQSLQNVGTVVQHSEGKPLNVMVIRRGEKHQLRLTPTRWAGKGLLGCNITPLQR
T1 sequence (P04386+Q9WTV5 fused): as the sequence (Q9WTV5 with tags, fused parts or gaps) above

With “p300: histone acetyltransferase and nuclear receptor coactivator, expressed from pCMV-p300 vector”, in assay [1], the “increase of reporter activation by Gal4-Bridge-1” value is on record as “over 70 fold”.

Consider Activin A, for which, in assay [2] (setting [4]), the “activation of Bridge-1 transactivation function” value worked out at 2.34 fold.

In the case of `CC(=O)[C@H]1CC[C@H]2[C@@H]3CCC4=CC(=O)CC[C@]4(C)[C@H]3CC[C@]12C` [Progesterone], in assay [2] (setting [4]), the “inhibition of Bridge-1 transactivation function” value amounted to 22%.

As to `CC(/C=C/C(=O)NO)=C\[C@@H](C)C(=O)c1ccc(N(C)C)cc1` [Trichostatin A], in assay [2] (2 or 4 ng/mL for 24 hours), the “effect on transcriptional activation by Bridge-1” value is “increased the transcriptional activation by Bridge-1 in a dose-dependent manner”. In addition, the “activation of Bridge-1 transactivation function” value in assay [2] (setting [4]) turned out to be 2.7 fold.

B1: Bridge-1: rat PDZ-domain transcriptional coactivator, acidic domain fusion in pJG4-5 (protein)
chain: MSSEEVRHRAESSEARAAAVSDIQELMRRKEEIEAQIKANYDVLESQKGIGMNEPLVDCEGYPRADVDLYQVRTARHNIICLQNDHKALMKQVEEALHQLHARDKEKQARDMAEAREEAMNRRLASDSPALPKAFARVNSISPGSPASIAGLQVDDEIVEFGSVNTQNFQSLQNVGTVVQHSEGKPLNVMVIRRGEKHQLRLTPTRWAGKGLLGCNITPLQR
modifications: left off: small tags and cut ends
Turning to B1, the “Interaction with PDX-1 Bait” value in assay [3] was “++”.

B2: Twist: rat Twist protein, control in yeast interaction trap assay (protein)
chain: MMQDVSSSPVSPADDSLSNSEEEPDRQQPASGKRGARKRRSSRRSAGGSAGPGGATGGGIGGGDEPGSPAQGKRGKKSAGGGGGAGGGGGGGGSSSGGGSPQSYEELQTQRVMANVRERQRTQSLNEAFAALRKIIPTLPSDKLSKIQTLKLAARYIDFLYQVLQSDELDSKMASCSYVAHERLSYAFSVWRMEGAWSMSASH
As to B2, in assay [3], the “Interaction with PDX-1 Bait” value was “−”.

B3: Id3: rat inhibitor of differentiation-3 protein, control in yeast interaction trap assay (protein)
chain: MKALSPVRGCYEAVCCLSERSLAIARGRGKSPSAEEPLSLLDDMNHCYSRLRELVPGVPRGTQLSQVEILQRVIDYILDLQVVLAEPAPGPPDGPHLPIQTAELTPELVISKDKRSFCH
As to B3, in assay [3], the “Interaction with PDX-1 Bait” value was “−”.
